From patent US20210284747A1 (CAPELLA BIOSCIENCE, published 2021)
Where two headings read alike, the source gives them in different places.

T1: Human LIGHT-32L, on II23 cells (human, UniProt O43557 1-240)
T1 construct: also called II23-LIGHT 32L
T1 chain: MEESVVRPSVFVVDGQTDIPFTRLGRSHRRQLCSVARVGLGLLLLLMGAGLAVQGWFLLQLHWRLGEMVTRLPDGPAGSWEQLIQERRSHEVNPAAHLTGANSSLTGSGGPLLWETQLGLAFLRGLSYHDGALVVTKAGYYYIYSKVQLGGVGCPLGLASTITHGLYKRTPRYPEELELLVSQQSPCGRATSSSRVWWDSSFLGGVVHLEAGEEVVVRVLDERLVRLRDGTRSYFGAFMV


Columns and labels:
[1] = target: T2, Human LIGHT stably expressed on EL4 cells (EL4-LIGHT) (human, UniProt O43557 1-240); assay: flow cytometry, EL4-LIGHT cells
T2 construct: whole, on cells; also called membrane LIGHT
T2 sequence (O43557 whole entry): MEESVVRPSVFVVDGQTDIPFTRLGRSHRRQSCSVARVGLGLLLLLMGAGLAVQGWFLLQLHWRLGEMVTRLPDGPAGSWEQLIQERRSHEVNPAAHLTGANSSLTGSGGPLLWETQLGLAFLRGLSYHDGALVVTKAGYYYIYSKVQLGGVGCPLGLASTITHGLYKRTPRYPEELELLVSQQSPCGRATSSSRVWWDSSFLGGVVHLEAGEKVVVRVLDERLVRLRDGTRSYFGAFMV

[2] = target: T2, Human LIGHT stably expressed on EL4 …; assay: flow cytometry, EL4-LIGHT cells; remark: listed apart in the source
Experimental: The EC50 of the 7 mAbs were calculated from binding to EL4-LIGHT cells (FIG. 1). […] Non-linear regression analysis was performed to determine the functional binding affinity measurement or EC50 for each mAb. A range of functional affinities was observed.

[3] = target: T2, Human LIGHT stably expressed on EL4 …; assay: flow cytometry, against F19 and F23
[4] = target: Full length LIGHT W198A on HEK293FF cells (Homo sapiens (Human), UniProt O43557 1-240); assay: flow cytometry, HEK293FF, mAb at EC50
Sequence of Full length LIGHT W198A on HEK293FF cells (O43557 whole entry W198A): as the sequence (O43557 whole entry) above, with W198A counted along it
Experimental: (§1) The day of transfection the cells were seeded in a 24-well plate at 0.6×10⁶ cells/well. Lipofectamine 2000 (ThermoFisher scientific), 3 ul, was mixed with 50 μl OptiMEM medium (GIBCO) and then added to 50 μl Opti-MEM medium containing 3 ug plasmid DNA and incubated for 20 min at RT to form DNA-Lipofectamine 2000 complexes which were then added to the HEK293FF cells and incubated at 37° C., 5% CO₂ for 24 hours. For each construct, in duplicate, 0.60×10⁶ cells/well were used in a 96 well round bottom plate. Cells were centrifuged for 3 minutes at 300×g at 4° C., the supernatant discarded and the cells washed with 150 μl FACS buffer (0.5% FBS in phosphate buffered saline). This process was repeated 3 times. […] The wells were washed 3 times as above and 50 μl/well of goat anti-human IgG FITC (1:1500 dilution in FACS buffer, SIGMA F9512-2ML) or goat anti-mouse APC (1/500 dilution in FACS buffer, BDBioscience 550826), as appropriate, was added to the wells and incubated for 30 min at 4° C. protected from the light, with shaking. The cells were then washed as above, resuspended in 100 μl of FACS buffer and binding of the antibodies to the constructs was measured using flow cytometry and a total of 10,000 cells were acquired for each sample. Controls of buffer and secondary antibody only as well as HEK293FF non transfected cells were also used.

[5] = target: Full length LIGHT S193A on HEK293FF cells (Homo sapiens (Human), UniProt O43557 1-240); assay: flow cytometry, HEK293FF, mAb at EC50
Experimental: as §1

[6] = target: Full length LIGHT W197A on HEK293FF cells (Homo sapiens (Human), UniProt O43557 1-240); assay: flow cytometry, HEK293FF, mAb at EC50
Sequence of Full length LIGHT W197A on HEK293FF cells (O43557 whole entry W197A): as the sequence (O43557 whole entry) above, with W197A counted along it
Experimental: as §1

[7] = target: Full length LIGHT S192A on HEK293FF cells (Homo sapiens (Human), UniProt O43557 1-240); assay: flow cytometry, HEK293FF, mAb at EC50
Sequence of Full length LIGHT S192A on HEK293FF cells (O43557 whole entry S192A): as the sequence (O43557 whole entry) above, with S192A counted along it
Experimental: as §1

[8] = target: Full length LIGHT R189A on HEK293FF cells (Homo sapiens (Human), UniProt O43557 1-240); assay: flow cytometry, HEK293FF, mAb at EC50
Sequence of Full length LIGHT R189A on HEK293FF cells (O43557 whole entry R189A): as the sequence (O43557 whole entry) above, with R189A counted along it
Experimental: as §1

[9] = target: Full length LIGHT T191A on HEK293FF cells (Homo sapiens (Human), UniProt O43557 1-240); assay: flow cytometry, HEK293FF, mAb at EC50
Sequence of Full length LIGHT T191A on HEK293FF cells (O43557 whole entry T191A): as the sequence (O43557 whole entry) above, with T191A counted along it
Experimental: as §1

[10] = target: Full length LIGHT A190S on HEK293FF cells (Homo sapiens (Human), UniProt O43557 1-240); assay: flow cytometry, HEK293FF, mAb at EC50
Sequence of Full length LIGHT A190S on HEK293FF cells (O43557 whole entry A190S): as the sequence (O43557 whole entry) above, with A190S counted along it
Experimental: as §1

[11] = target: Full length LIGHT G188A on HEK293FF cells (Homo sapiens (Human), UniProt O43557 1-240); assay: flow cytometry, HEK293FF, mAb at EC50
Sequence of Full length LIGHT G188A on HEK293FF cells (O43557 whole entry G188A): as the sequence (O43557 whole entry) above, with G188A counted along it
Experimental: as §1

[12] = target: Full length LIGHT V196A on HEK293FF cells (Homo sapiens (Human), UniProt O43557 1-240); assay: flow cytometry, HEK293FF, mAb at EC50
Experimental: as §1

[13] = target: Full length LIGHT R195A on HEK293FF cells (Homo sapiens (Human), UniProt O43557 1-240); assay: flow cytometry, HEK293FF, mAb at EC50
Sequence of Full length LIGHT R195A on HEK293FF cells (O43557 whole entry R195A): as the sequence (O43557 whole entry) above, with R195A counted along it
Experimental: as §1

[14] = target: Full length LIGHT S194A on HEK293FF cells (Homo sapiens (Human), UniProt O43557 1-240); assay: flow cytometry, HEK293FF, mAb at EC50
Sequence of Full length LIGHT S194A on HEK293FF cells (O43557 whole entry S194A): as the sequence (O43557 whole entry) above, with S194A counted along it
Experimental: as §1

[15] = target: T1, Human LIGHT-32L, on II23 cells; assay: flow cytometry on II23-LIGHT 32L cells, 4 ug mAb in 100 uL, goat anti-human Fc gamma-PE; signal as % of the commercial anti-LIGHT-PE
Experimental: The cells were suspended at 1×10⁷ cells/ml and 100 uL aliquots were placed into wells of a 96-well plate, the cells spun down and washed in FACS buffer at 1800 rpm for 2 min. The cells were blocked with 1:100 dilution of anti-CD16/CD32 (eBioscience, San Diego, USA) in FACS buffer for 20 min at room temperature and then washed 1× in FACS buffer at 1800 rpm for 2 min. The cells were then resuspended in 100 uL FACS buffer+4 ug anti-membrane LIGHT mAbs or anti-LIGHT-PE (eBioscience, lot: E01621-1632) for 30 min in the dark at room temperature, followed by washing 1× in FACS buffer at 1800 rpm for 2 min and then resuspended in 100 uL FACS buffer plus 1:100 goat anti-human Fcγ-PE secondary antibody or no secondary antibody at 4° C. in the dark for 30 min. The cells were again washed 1× in FACS buffer at 1800 rpm for 2 min and fixed in 200 uL 2% paraformaldehyde overnight at 4° C. and read on a flow cytometer.

[16] = target: LIGHT without residues 81-84, stably expressed on EL4 cells (EL4-NC-LIGHT); assay: cell-based or functional assay

Row | Binder | EC50 [1] [nM] | EC50 [2] [nM] | binding ratio, mAb to LIGHT trimer [3] [mAb per LIGHT trimer] | % of WT binding [4] [%] | % of WT binding [5] [%] | % of WT binding [6] [%] | % of WT binding [7] [%] | % of WT binding [8] [%] | % of WT binding [9] [%] | % of WT binding [10] [%] | % of WT binding [11] [%] | % of WT binding [12] [%] | % of WT binding [13] [%] | % of WT binding [14] [%] | binding result [15] | IC50, inhibition of IL-8 secretion, HT-29 + EL4-NC-LIGHT cells [16] [nM]
1 | 3B04_var3 (antibody, V domains shown, Human IgG4 (S241P, L248E, Kabat); also called 3B04VH3VK1) VH: QVQLVQSGAEVKKPGASVKVSCKASGYTFTDYEMHWVRQAPGQGLEWMGEIDPETGDTAYAQKFQGRVTLTADKSTSTAYMEFSSLRSEDTAVYYSCRETDYFFDYWGQGTLVTVSS VL: DIQMTQSPSSLSASVGDRVTITCGASENIYGALNWYQRKQGKAPQLLIYGATNLADGVSSRFSGSGSGRDYTLTISSLQPEDFATYYCQNVLTTPWTFGQGTKLEIKR | 0.32 |  |  |  |  |  |  |  |  |  |  |  |  |  |  | 
2 | 3A07 chimeric IgG4 mAb (antibody, V domains shown, Chimeric human IgG4 (S-to-P, L-to-E) with human CL, as m1; also called Parental 3A07) VH: QVQLQQSGAELVRPGAPVTLSCKASDYTFTDSEIHWVKQTPVHGLEWIGEIDPETGGTAYNQKFKGKATLTADKSSSTAYMELRSLTSEDSAVYYCSRETDYFFDYWGQGTTLTVSS VL: ENVLTQSPAIMSASPGEKVTMTCSASSSVSYMYWYQQRPGSSPRLLIYDTSNLASGVPVRFSGSGSGTSYSLTISRMEAEDAATYYCQQWSSYPLTFGSGTKLEIK |  | 0.133 | 1 | 82 | 0 | 1 | 41 | 0 | 4 | 47 | 5 | 77 | 15 | 1 | binds | 2
3 | 2E08 chimeric IgG4 mAb (antibody, V domains shown, Chimeric human IgG4 (S-to-P, L-to-E) with human CL, as m1; also called Parental 2E08) VH: QVQMKESGAELVRPGVSVKISCKGSGYTFTDYAIHWVKQSHAKTLEWIGVISTYYGDASYNQKFKGKATMTVDKSSSTAYMELARLTSDDSAIYYCARSRGEYGNYDAMDYWGQGTSVTVSS VL: DIVLTQSPASLAVSLGQRATISCKASQSVDYDGDSYMNWYQQKPGQPPKLLIYAASNLESGIPARFSGSGSGTDFTLNIHPVEEEDAATYYCQQSNEDPLTFGAGTKLELK |  | 2.73 | 1 | 83 | 0 | 0 | 122 | 2 | 22 | 93 | 44 | 99 | 43 | 3 | binds | 1.8

More lines, now with the values ahead:

Row | EC50 [1] [nM] | EC50 [2] [nM] | binding ratio, mAb to LIGHT trimer [3] [mAb per LIGHT trimer] | % of WT binding [4] [%] | % of WT binding [5] [%] | % of WT binding [6] [%] | % of WT binding [7] [%] | % of WT binding [8] [%] | % of WT binding [9] [%] | % of WT binding [10] [%] | % of WT binding [11] [%] | % of WT binding [12] [%] | % of WT binding [13] [%] | % of WT binding [14] [%] | binding result [15] | IC50, inhibition of IL-8 secretion, HT-29 + EL4-NC-LIGHT cells [16] [nM] | Binder
4 | 0.23 |  |  |  |  |  |  |  |  |  |  |  |  |  |  |  | 3B04_var7 (antibody, V domains shown, Human IgG4 (S241P, L248E, Kabat); also called 3B04VH3VK2) VH: QVQLVQSGAEVKKPGASVKVSCKASGYTFTDYEMHWVRQAPGQGLEWMGEIDPETGDTAYAQKFQGRVTLTADKSTSTAYMEFSSLRSEDTAVYYSCRETDYFFDYWGQGTLVTVSS VL: DIQMTQSPSSLSASVGDRVTITCGASENIYGALNWYQRKQGKAPKLLIYGATNLADGVPSRFSGSGSGRDYTLTISSLQPEDFATYYCQNVLTTPWTFGQGTKLEIKR
5 | 0.37 |  |  |  |  |  |  |  |  |  |  |  |  |  |  |  | 3B04_var11 (antibody, V domains shown, Human IgG4 (S241P, L248E, Kabat); also called 3B04VH3VK3) VH: QVQLVQSGAEVKKPGASVKVSCKASGYTFTDYEMHWVRQAPGQGLEWMGEIDPETGDTAYAQKFQGRVTLTADKSTSTAYMEFSSLRSEDTAVYYSCRETDYFFDYWGQGTLVTVSS VL: DIQMTQSPSSLSASVGDRVTITCGASENIYGALNWYQQKPGKAPKLLIYGATNLADGVPSRFSGSGSGRDYTLTISSLQPEDFATYYCQNVLTTPWTFGQGTKLEIKR
6 |  | 0.118 | 1 | 86 | 0 | 0 | 35 | 0 | 3 | 40 | 3 | 78 | 6 | 0 | binds | 1.9 | 3C10 chimeric IgG4 mAb (antibody, V domains shown, Chimeric human IgG4 (S-to-P, L-to-E) with human CL, as m1; also called Parental 3C10) VH: EVQLQQSGAELVRPGASVTLSCKASDYTFTDSEIHWVKQTPVHGLEWIGEIDPETGGTAYNQKFKGKATLTADKSSSTAYMELRSLTSEDSAVYYCSRETDYFFDYWGQGTTLTVSS VL: DVVMTQTPAIMSASPGEKVTMTCSASSSVSYMYWYQQKPGSSPRLLIYDTSNLASGVPVRFSGSGSGTSYSLTISRMEAEDAATYYCQQWSSYPLTFGAGTKLELK
